B1: library; numbered along this chain (parent)
chain: MRKPRAAVGSGHRKQAASQEGRQKHAKNNSQAKPSACDGLARQPEEVVLQASVSSYHLFRDVAEVTAFRGSLLSWYDQEKRDLPWRRRAEDEMDLDRRAYAVWVSEVMLQQTQVATVINYYTGWMQKWPTLQDLASASLEEVNQLWAGLGYYSRGRRLQEGARKVVEELGGHMPRTAETLQQLLPGVGRYTAGAIASIAFGQATGVVDGNVARVLCRVRAIGADPSSTLVSQQLWGLAQQLVDPARPGDFNQAAMELGATVCTPQRPLCSQCPVESLCRARQRVEQEQLLASGSLSGSPDVEECAPNTGQCHLCLPPSEPWDQTLGVVNFPRKASRKPPREESSATCVLEQPGALGAQILLVQRPNSGLLAGLWEFPSVTWEPSEQLQRKALLQELQRWAGPLPATHLRHLGEVVHTFSHIKLTYQVYGLALEGQTPVTTVPPGARWLTQEEFHTAAVSTAMKKVFRVYQGQQPGTCMGSKRSQVSSPCSRKKPRMGQQVLDNFFRSHISTDAHSLNSAAQ

Variants of: B1
Test: 8OG:A repair function score (normalized; synonymous = 0, nonsense = -1) (normalized log-likelihood score); higher = more repair activity (WT-like)
Settings: with 8OG:A DNA repair reporter (GFP) in HEK-293 MUTYH KO cells
Summary of the method: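 MUTYH knockout HEK-293 cells carrying lentiviral MUTYH cDNA NNN codon-scan libraries were grown with 10 pg/ml doxycycline and co-transfected with mCherry and a GFP reporter of 8OG:A repair. Viable mCherry+ cells were sorted at 72 h into GFP+ (repair) and GFP− bins, with three replicates per tile, and tile amplicons were sequenced. Rosace fitness scores for each tile were turned into a normalized repair function score anchored on the synonymous and nonsense distributions. Synonymous medians were set to 0 and nonsense medians to -1, and variants below 300 counts per million at the start were dropped.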

8OG:A repair function score of substitutions, site by site:
G479: K 0.00166, F -0.00391, N -0.00734, D 0.0194, P 0.0129, I -0.00859, L 0.00935, H 0.0228, C -0.0498, V 0.00419, Y 0.025, M -0.0116, Q 0.0264, T -0.0258, R -0.0309, E 0.0225, S 0.00355, A 0.00119, W -0.0628
Q472: S 0.0274, N 0.0284, W 0.027, H -0.152, T -0.00129, K -0.009, P 0.0113, L 0.022, A 0.0214, G -0.000609, D 0.0112, E -0.00354, V 0.00907, M -0.0129, C -0.0129, R 0.0222, F 0.018, Y 0.00647, I 0.0116
Q470: L 0.00494, M -0.0791, W -0.0772, R -0.00198, P -0.426, I 0.00254, F -0.0175, A -0.0419, C -0.00083, V -0.00474, T -0.0526, G -0.105, E -0.000322, D -0.0832, Y -0.0671, N 0.0117, H -0.029, K 0.0155, S -0.00501
Y469: I -0.259, W 0.00845, R -0.195, D -0.955, L -0.314, C -0.193, N -0.738, G -0.451, Q -0.317, P -0.718, T -0.181, A -0.0759, M -0.259, K -0.326, V -0.153, F -0.0628, S -0.115, H -0.0773, E -0.89
V468: W -0.204, N -0.262, D -0.647, I -0.0279, A -0.0846, G -0.557, Q -0.0492, L -0.00361, Y -0.025, P -0.969, R -0.101, C -0.0116, H -0.0347, E -0.259, F -0.0236, M -0.0306, K -0.0375, S -0.18, T -0.0398
R482: E 0.00949, I -0.00811, G 0.0105, F 0.0283, P 0.0273, H -0.0234, Q 0.0234, K 0.021, N -0.0127, L 0.00831, C 0.0254, M -0.00466, D -0.000963, S 0.0216, Y 0.0178, T -0.0344, A 0.0234, W 0.0248, V 0.00231
G471: Q 0.00928, T -0.0359, W -0.0505, L -0.0292, A 0.0172, N 0.00878, E -0.0561, C -0.0198, D 0.0172, F -0.0055, M 0.011, H 0.00339, K 0.0191, R 0.00545, V 0.00448, S 0.0169, P -0.0663, I -0.00761, Y 0.0198
F466: A -0.4, V -0.443, I -0.587, P -1.3, T -0.725, R -0.568, W -0.0618, G -0.584, C -0.319, S -0.715, D -0.872, E -0.52, Q -0.488, K -0.729, N -0.0913, Y 0.00857, H -0.355, M -0.0599, L -0.0617
T476: D 0.00347, P -0.0234, W -0.159, L -0.0267, V -0.0294, Y -0.0187, R -0.0215, E 0.0105, K 0.024, Q -0.0039, M -0.0533, A -0.0442, C -0.0603, H -0.0339, S 0.00281, F 0.0194, G -0.0416, N -0.0111, I -0.074
Q473: V 0.00634, I -0.0484, E -0.021, L -0.0116, S 0.00408, A -0.00985, G 0.0222, R 0.00304, T -0.00244, C 6.68e-05, D -0.0165, W 0.0181, F 0.00513, N 0.0155, P -0.0268, K -0.0281, H 0.0203, M 0.0265, Y -0.023
P474: H 0.0269, A -0.0123, W -0.0167, C -0.00224, Y -0.0117, N -0.0807, Q 0.0183, V 0.00398, I -0.014, F 0.0108, T 0.0285, K -0.0164, E 0.0263, G -0.00334, L 0.0136, D 0.00257, R 0.00458, M 0.0118, S -0.00281
C477: W 0.00839, A -0.00821, M 0.00893, G -0.00235, V -0.0256, Q 0.0117, E -0.0756, R 0.000623, I -0.0054, Y -0.016, H 0.0203, T 0.019, F -0.0432, K 0.00687, L 0.0205, P -0.00239, S -0.00994, N 0.0283, D 0.016
S480: W 0.022, L -0.0111, H 0.0192, R 0.00162, C -0.0352, Q -0.00583, K 0.0154, E -0.00292, M 0.0231, Y -0.0114, V 0.00525, T 0.0286, N 0.0064, G 0.00341, P -0.000393, A 0.0216, I -0.0226, D 0.0166, F -0.0271
M478: R -0.0213, V -0.00439, Q 0.0193, G 0.0207, W 0.0205, L -0.0153, P -0.0126, E 0.0141, D -0.0222, H -0.119, Y 0.0167, A -0.0431, I -0.0519, C 0.0262, T -0.0383, F 0.0278, S -0.00625, K 0.00017, N -0.0119
G475: Y -0.00721, I -0.00703, A 0.000317, M -0.126, R 0.00413, S -0.016, P -0.00826, W -0.0871, K 0.0247, F -0.00573, V -0.0131, L 0.0136, D -0.00652, H -0.0609, C 0.00154, E -0.00575, T -0.0403, Q -0.00214, N 0.0259
S483: K -0.04, I -0.00113, L 0.00323, H 0.00458, G -0.0331, C 0.025, E -0.0311, A 0.00092, D 0.0208, F 0.0169, M -0.00708
R467: F -0.0681, W -0.034, Y -0.0417, M -0.057, A 0.0232, C -0.137, V -0.105, K -0.0257, I -0.0576, G -0.0609, D -0.0155, Q -0.0758, H -0.0349, E -0.144, L -0.0425, N -0.0631, T -0.0575, S -0.0606, P -0.876
K481: N -2.28e-05, M -0.00967, G -0.0136, L -0.0084, Y -0.0542, C 0.0191, H -0.0426, T -0.0524, D 0.016, I 0.000486, E -0.00514, S -0.00188, A -0.00494, W -0.0431, P 0.00979, V -0.0202, F 0.0166, R 0.0229, Q -0.00252

— the supplement of paper PMC11908140
